Literature values in article PMC6615999.

Target: PKR (Homo sapiens) (UniProt P19525)

PKR (from UniProt P19525)
Kd: 500 µM
